The supplement of paper PMC10567573

B1: LCOR (parent)
chain: YKVKERLGTLKNPPKKKMKLMSG
B2: FAM46D (parent)
chain: FQEAMTHLQHKLICTRKPEEIRGG

Variants of: B1
Experiment: protein stability index of a GFP-peptide fusion (GPS, HEK-293T) (PSI 1-6); higher = more stable
Conditions: c terminus: native
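Note: lentivirally expressed fusions sorted by FACS into six bins by GFP to DsRed ratio, PSI derived from sequencing read proportions per bin multiplied by bin number.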

Variant | protein stability index
YKDKERLGTLKNPPKKKMKLMSG | 2.36
YKFKERLGTLKNPPKKKMKLMSG | 1.62
YKLKERLGTLKNPPKKKMKLMSG | 1.97
YKCKERLGTLKNPPKKKMKLMSG | 1.6
YKNKERLGTLKNPPKKKMKLMSG | 2.69
YKQKERLGTLKNPPKKKMKLMSG | 3.06
YKVKERLGTLKNPPKKIMKLMSG | 2.58
YKVKERLGTLKNPPKKGMKLMSG | 1.43
YKVKERLGTLKNPPKKHMKLMSG | 2.02
YKVKERLGTLKNPPKKMMKLMSG | 1.94
YKVKERLGTLKNPPKKNMKLMSG | 1.83
YKVKERLGTLKNPPKKEMKLMSG | 2.63
YKVKERLGTLKNPPKKRMKLMSG | 2.22
YKVKERLGTLKNPPKKKMNLMSG | 2.96
YKVKERLGTLKNPPKKKMCLMSG | 2.15
YKVKERLGTLKNPPKKKMHLMSG | 2.51
YKVKERLGTLKNPPKKKMELMSG | 2.5
YEVKERLGTLKNPPKKKMKLMSG | 1.71
YHVKERLGTLKNPPKKKMKLMSG | 1.88
YDVKERLGTLKNPPKKKMKLMSG | 1.48
YQVKERLGTLKNPPKKKMKLMSG | 1.31
YGVKERLGTLKNPPKKKMKLMSG | 1.64
YSVKERLGTLKNPPKKKMKLMSG | 1.8
YLVKERLGTLKNPPKKKMKLMSG | 3.05

Variant | protein stability index
YCVKERLGTLKNPPKKKMKLMSG | 1.79
YKVKERLGTLKNPPKKKMKLMSI | 2.4
YKVKERLGTLKNPPKKKMKLMSM | 3.85
YKVKERLGTLKNPPKKKMKLMSP | 3.18
YKVKERLGTLKNPPKKKIKLMSG | 2.02
YKVKERLGTLKNPPKKKAKLMSG | 2.49
YKVKERLGTLKNPPKKKCKLMSG | 1.82
YKVKERLGTLKNPPKKKTKLMSG | 1.36
YKVKERLGTLKNPPKKKRKLMSG | 2.2
YKVKERLGTLKNPPKKKPKLMSG | 2.03
YKVKERLGTLKNPPKKKEKLMSG | 2.24
YKVKERLGSLKNPPKKKMKLMSG | 2.19
YKVKERLGLLKNPPKKKMKLMSG | 3.4
YKVKERLGMLKNPPKKKMKLMSG | 2.39
YKVKERLGQLKNPPKKKMKLMSG | 2.64
YKVKERLGYLKNPPKKKMKLMSG | 2.22
YKVKERLGELKNPPKKKMKLMSG | 1.53
YKVKERLGDLKNPPKKKMKLMSG | 2.17
YKVKERLGTLKNPPKKKMKLTSG | 1.76
YKVKERLGTLKNPPKKKMKLPSG | 2.56
YKVKERLGTLKNPPKKKMKLCSG | 4.02
YKVKERLGTLKNPPKKKMKLWSG | 2.82
YKVKERLGTLKNPPKKKMKLFSG | 2.78
YKVKERLGTLKNPPKKKMKLYSG | 2.34

Variant | protein stability index
YKVKERLGTLCNPPKKKMKLMSG | 2.02
YKVKERLGTLANPPKKKMKLMSG | 3.29
YKVKERLGTLENPPKKKMKLMSG | 1.69
YKVKERLGTLINPPKKKMKLMSG | 3.65
YKVKERLGTLRNPPKKKMKLMSG | 2.39
YKVKERLGTLKNPAKKKMKLMSG | 1.42
YKVKERLGTLKNPKKKKMKLMSG | 1.77
YKVKERLGTLKNPTKKKMKLMSG | 1.63
YKVKERLGTLKNPHKKKMKLMSG | 2.87
YKVKERLGTLKNPIKKKMKLMSG | 1.78
YKVKERLGTLKNPYKKKMKLMSG | 3.03
YKVKERLGTLKNPMKKKMKLMSG | 3.42
YKVKERLGTLKNPSKKKMKLMSG | 3.59
YKVKERLGTLKNPWKKKMKLMSG | 2.41
YKVKERLGTLKNPPSKKMKLMSG | 2.17
YKVKERLGTLKNPPPKKMKLMSG | 2.99
YKVKERLGTLKNPPKKKMKLMIG | 2.45
YKVKERLGTLKNPPKKKMKLMCG | 2.14
YKVKERLGTLKNPPKKKMKLMHG | 2.95
YKVKERLGTLKNPPKKKMKLMKG | 3.02
YKVKERLGTLKNPPKKKMKLMAG | 2.85
YKVKERLGTLKNPPKKKMKLMMG | 1.61
YKVKERLGTVKNPPKKKMKLMSG | 2
YKVKERLGTCKNPPKKKMKLMSG | 2.19

Variant | protein stability index
YKVKERLGTAKNPPKKKMKLMSG | 2.38
YKVKERLGTFKNPPKKKMKLMSG | 2.46
YKVKERLGTEKNPPKKKMKLMSG | 2.04
YKVKERLGTGKNPPKKKMKLMSG | 1.35
YKVKERLGTKKNPPKKKMKLMSG | 1.85
YKVKERLGTSKNPPKKKMKLMSG | 1.85
YKVKERLGTLKAPPKKKMKLMSG | 2.54
YKVKERLGTLKHPPKKKMKLMSG | 2.7
YKVKERLGTLKIPPKKKMKLMSG | 1.09
YKVKERLGTLKGPPKKKMKLMSG | 2.84
YKVKERLGTLKRPPKKKMKLMSG | 3.15
YKVKERLGTLKQPPKKKMKLMSG | 2.6
YKVKERLGTLKWPPKKKMKLMSG | 2.83
YKVKERLGTLKYPPKKKMKLMSG | 2.39
YKVKERLGTLKTPPKKKMKLMSG | 3.6
YKVKERLGTLKPPPKKKMKLMSG | 2.33
YKVKERLGTLKNTPKKKMKLMSG | 2.42
YKVKERLGTLKNRPKKKMKLMSG | 2.2
YKVKERLGTLKNEPKKKMKLMSG | 2.94
YKVKERLGTLKNFPKKKMKLMSG | 2.63
YKVKERLGTLKNCPKKKMKLMSG | 2.03
YKVKERLGTLKNAPKKKMKLMSG | 2.68
YKVKSRLGTLKNPPKKKMKLMSG | 2.11
YKVKARLGTLKNPPKKKMKLMSG | 1.75

Variant | protein stability index
YKVKKRLGTLKNPPKKKMKLMSG | 2.21
YKVKVRLGTLKNPPKKKMKLMSG | 2.94
YKVKHRLGTLKNPPKKKMKLMSG | 2.85
YKVKFRLGTLKNPPKKKMKLMSG | 2.71
YKVKCRLGTLKNPPKKKMKLMSG | 1.74
YKVKERSGTLKNPPKKKMKLMSG | 1.55
YKVKERIGTLKNPPKKKMKLMSG | 2.14
YKVKERPGTLKNPPKKKMKLMSG | 1.55
YKVKERGGTLKNPPKKKMKLMSG | 3.22
YKVKERTGTLKNPPKKKMKLMSG | 1.85
YKVKERLGTLKNPPKQKMKLMSG | 2.17
YKVKERLGTLKNPPKYKMKLMSG | 2.98
YKVKERLGTLKNPPKFKMKLMSG | 1.45
YKVKERLGTLKNPPKSKMKLMSG | 1.46
YKVKERLGTLKNPPKNKMKLMSG | 1.76
YKVKERLGTLKNPPKIKMKLMSG | 1.39
YKVKERLGTLKNPPKVKMKLMSG | 1.87
YKVKERLGTLKNPPKHKMKLMSG | 1.49
FKVKERLGTLKNPPKKKMKLMSG | 1.23
SKVKERLGTLKNPPKKKMKLMSG | 2.2
YKVKERLRTLKNPPKKKMKLMSG | 1.4
YKVKERLTTLKNPPKKKMKLMSG | 2.16
YKVKERLKTLKNPPKKKMKLMSG | 1.47
YKVKERLCTLKNPPKKKMKLMSG | 2.52

Variant | protein stability index
YKVKERLQTLKNPPKKKMKLMSG | 3.21
YKVKERLGTLKNPPKKKMKCMSG | 1.8
YKVKERLGTLKNPPKKKMKGMSG | 3.74
YKVKERLGTLKNPPKKKMKEMSG | 3.99
YKVKERLGTLKNPPKKKMKKMSG | 3.8
YKVKERLGTLKNPPKKKMKWMSG | 2.95
YKVKERLGTLKNPPKKKMKFMSG | 2.55
YKVSERLGTLKNPPKKKMKLMSG | 1.93
YKVRERLGTLKNPPKKKMKLMSG | 3.6
YKVEERLGTLKNPPKKKMKLMSG | 2.48
YKVPERLGTLKNPPKKKMKLMSG | 1.35
YKVGERLGTLKNPPKKKMKLMSG | 2.1
YKVLERLGTLKNPPKKKMKLMSG | 2.23
YKVVERLGTLKNPPKKKMKLMSG | 1.22
YKVMERLGTLKNPPKKKMKLMSG | 1.26
YKVKEILGTLKNPPKKKMKLMSG | 2.49
YKVKEELGTLKNPPKKKMKLMSG | 2.17
YKVKEWLGTLKNPPKKKMKLMSG | 2.79
YKVKEYLGTLKNPPKKKMKLMSG | 2.14
YKVKEFLGTLKNPPKKKMKLMSG | 2.2
YKVKEDLGTLKNPPKKKMKLMSG | 1.46

Variants of: B2
Experiment: as above
Conditions: c terminus: a fixed tail appended

Variant | protein stability index
FAEAMTHLQHKLICTRKPEEIRGG | 2.91
FYEAMTHLQHKLICTRKPEEIRGG | 2.19
FPEAMTHLQHKLICTRKPEEIRGG | 2.53
FLEAMTHLQHKLICTRKPEEIRGG | 2.32
FGEAMTHLQHKLICTRKPEEIRGG | 3.01
FCEAMTHLQHKLICTRKPEEIRGG | 1.76
FNEAMTHLQHKLICTRKPEEIRGG | 3.38
FSEAMTHLQHKLICTRKPEEIRGG | 2.74
FWEAMTHLQHKLICTRKPEEIRGG | 1.67
FFEAMTHLQHKLICTRKPEEIRGG | 1.6
FEEAMTHLQHKLICTRKPEEIRGG | 4.25
FTEAMTHLQHKLICTRKPEEIRGG | 2.1
FMEAMTHLQHKLICTRKPEEIRGG | 2.28
FHEAMTHLQHKLICTRKPEEIRGG | 2.02
FKEAMTHLQHKLICTRKPEEIRGG | 3.46
FIEAMTHLQHKLICTRKPEEIRGG | 2.01
FDEAMTHLQHKLICTRKPEEIRGG | 4.05
FVEAMTHLQHKLICTRKPEEIRGG | 1.56
FREAMTHLQHKLICTRKPEEIRGG | 4.08
WQEAMTHLQHKLICTRKPEEIRGG | 3.28
PQEAMTHLQHKLICTRKPEEIRGG | 4.01
EQEAMTHLQHKLICTRKPEEIRGG | 5.26
VQEAMTHLQHKLICTRKPEEIRGG | 4.64
GQEAMTHLQHKLICTRKPEEIRGG | 4.4
DQEAMTHLQHKLICTRKPEEIRGG | 4.81
CQEAMTHLQHKLICTRKPEEIRGG | 3.98

Variant | protein stability index
IQEAMTHLQHKLICTRKPEEIRGG | 3.29
NQEAMTHLQHKLICTRKPEEIRGG | 4.29
QQEAMTHLQHKLICTRKPEEIRGG | 3.85
RQEAMTHLQHKLICTRKPEEIRGG | 3.82
LQEAMTHLQHKLICTRKPEEIRGG | 2.93
HQEAMTHLQHKLICTRKPEEIRGG | 4.3
KQEAMTHLQHKLICTRKPEEIRGG | 3.61
TQEAMTHLQHKLICTRKPEEIRGG | 3.96
MQEAMTHLQHKLICTRKPEEIRGG | 3.67
SQEAMTHLQHKLICTRKPEEIRGG | 3.49
YQEAMTHLQHKLICTRKPEEIRGG | 3.2
AQEAMTHLQHKLICTRKPEEIRGG | 4.16
FQFAMTHLQHKLICTRKPEEIRGG | 1.48
FQDAMTHLQHKLICTRKPEEIRGG | 2.17
FQPAMTHLQHKLICTRKPEEIRGG | 2.8
FQCAMTHLQHKLICTRKPEEIRGG | 1.64
FQHAMTHLQHKLICTRKPEEIRGG | 2.21
FQAAMTHLQHKLICTRKPEEIRGG | 1.82
FQQAMTHLQHKLICTRKPEEIRGG | 2.52
FQMAMTHLQHKLICTRKPEEIRGG | 1.62
FQGAMTHLQHKLICTRKPEEIRGG | 2.98
FQNAMTHLQHKLICTRKPEEIRGG | 2.55
FQKAMTHLQHKLICTRKPEEIRGG | 2.17
FQLAMTHLQHKLICTRKPEEIRGG | 1.9
FQIAMTHLQHKLICTRKPEEIRGG | 2.22
